Among the data in publication PMC5670330 are AF568-HDL internalization by HCCMECs after pre-treatment with 10 ug/mL blocking anti-SR-BI scFv (percent decrease) values, retold here.

This assay addresses GFP-SR-BI (scavenger receptor BI) on CHO cells (UniProt Q8WTV0).
Chain of UniProt Q8WTV0 (Q8WTV0 whole entry): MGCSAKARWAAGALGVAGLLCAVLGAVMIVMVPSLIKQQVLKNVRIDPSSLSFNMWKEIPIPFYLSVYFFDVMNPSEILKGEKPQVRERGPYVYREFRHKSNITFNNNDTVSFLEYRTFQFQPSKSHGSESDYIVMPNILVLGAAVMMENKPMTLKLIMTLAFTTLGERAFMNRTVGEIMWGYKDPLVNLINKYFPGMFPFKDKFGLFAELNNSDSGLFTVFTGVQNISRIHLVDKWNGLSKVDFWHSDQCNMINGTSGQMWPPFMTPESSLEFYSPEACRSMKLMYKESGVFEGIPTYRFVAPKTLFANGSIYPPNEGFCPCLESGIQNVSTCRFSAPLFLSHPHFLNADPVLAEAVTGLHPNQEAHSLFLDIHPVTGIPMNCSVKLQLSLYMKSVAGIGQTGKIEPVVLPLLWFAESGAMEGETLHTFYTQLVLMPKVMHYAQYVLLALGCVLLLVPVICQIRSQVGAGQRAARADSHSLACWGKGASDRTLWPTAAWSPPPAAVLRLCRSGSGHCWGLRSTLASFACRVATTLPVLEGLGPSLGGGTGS

Turning to “Alexa Fluor 568 labeled human high-density lipoprotein (from UniProt P02647 19-267) (complex)”, the AF568-HDL internalization by HCCMECs after pre-treatment with 10 ug/mL blocking anti-SR-BI scFv (percent decrease) was 57%.
